# Laboratory results taken from US6680424 (UNIVERSITY OF LEEDS, dated 2004).
# Like-named read-outs stand apart in the source and are kept apart here.
# T1: C. elegans cysteine proteinase gcp-1, expressed and purified from E. coli (Caenorhabditis elegans, UniProt P25807 85-329, limits assumed)
# T1 construct: also called gcp-I; glp-1
# T1 sequence (looked up): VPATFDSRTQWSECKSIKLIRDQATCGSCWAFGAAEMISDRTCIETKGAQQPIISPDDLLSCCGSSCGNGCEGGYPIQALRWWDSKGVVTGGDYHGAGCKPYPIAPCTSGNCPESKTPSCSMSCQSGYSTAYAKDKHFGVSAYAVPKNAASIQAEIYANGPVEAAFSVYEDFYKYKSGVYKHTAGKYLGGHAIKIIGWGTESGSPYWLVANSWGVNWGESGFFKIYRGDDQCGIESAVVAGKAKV
# T2: papain (UniProt P00784 134-345)
# T2 sequence (looked up): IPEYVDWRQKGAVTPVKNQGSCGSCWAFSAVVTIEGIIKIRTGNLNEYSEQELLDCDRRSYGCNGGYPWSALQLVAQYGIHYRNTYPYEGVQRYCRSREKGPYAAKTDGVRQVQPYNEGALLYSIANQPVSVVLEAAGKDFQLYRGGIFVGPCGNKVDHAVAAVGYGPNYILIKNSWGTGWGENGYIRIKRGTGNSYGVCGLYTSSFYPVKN
# Columns and labels:
# [1] = target: corresponding proteinases (proteinase of the comparative inhibition assay, not named); assay: cell-based or functional assay
# [2] = target: T1, C. elegans cysteine proteinase gcp-1, …; assay: proteinase inhibition assay, Ki
# papain [3] = target: T2, papain; assay: proteinase inhibition assay, Ki
# [4] = target: T1, C. elegans cysteine proteinase gcp-1, …; assay: proteinase inhibition assay (Barrett), Ki calculated as by Abe et al.
# Method: (§1) To determine the Ki of cystatins biochemical assays were performed according to the procedure of Barrett (7) and Ki values were calculated as described by Abe et al. (3)
# papain [5] = target: T2, papain; assay: as above
# Method: as §1
# [6] = target: corresponding proteinases (proteinase of the comparative inhibition assay, not named); assay: cell-based or functional assay; remark: listed apart in the source
relative percentage inhibition [1] [%],fold lowering of Ki against wild type Oc-I [2] [fold],fold lowering of Ki against wild type Oc-I (papain [3]) [fold],Ki [4] [nM],Ki (papain [5]) [nM],relative percentage inhibition [6] [%],Molecule
90,–,–,–,–,–,OC-NTERM1-15QVLSG40-63CTERM97-116 (hybrid of Oc-I with three CEWC regions) (from UniProt P09229 56-77; P09229 102-123)
100,–,–,–,–,–,Chicken egg white cystatin (CEWC) (from UniProt P01038 24-139)
88,~13,~13,0.6,0.5,–,Oc-IdeltaD86 (Oryzacystatin I with aspartic acid 86 deleted) (other) HHHHHHMSSDGGPVLGGVEPVGNENDLHLVDLARFAVTEHNKKANSLLEFEKLVSVKQQVVAGTLYYFTIEVKEGDAKKLYEAKVWEKPWMFKELQEFKPVDASANA
–,–,–,7.1,–,–,Oc-I with deletion of residue M85 (other) HHHHHHMSSDGGPVLGGVEPVGNENDLHLVDLARFAVTEHNKKANSLLEFEKLVSVKQQVVAGTLYYFTIEVKEGDAKKLYEAKVWEKPWDFKELQEFKPVDASANA
–,–,–,8,7,60,"Oryzacystatin I (Oc-I), wild type, expressed from pQE30 in E. coli (other, Oryza sativa L. japonica, the present UniProt entry may carry a longer N-terminus, so the numbering must be checked; also called Oryzacystatin Oc-I; native Oc-I) HHHHHHMSSDGGPVLGGVEPVGNENDLHLVDLARFAVTEHNKKANSLLEFEKLVSVKQQVVAGTLYYFTIEVKEGDAKKLYEAKVWEKPWMDFKELQEFKPVDASANA"
